Patent US20210371489A1, “SITE 2 SINGLE-CHAIN INSULIN ANALOGUES” (Case Western Reserve University, priority 2018, published 2021)

How the values were obtained:
insulin receptor (IR) = insulin receptor (IR) (Homo sapiens, UniProt P06213); settings: cited from earlier work
[1] = system: diabetic Sprague-Dawley rats; settings: diabetic (streptozotocin) Sprague-Dawley rats; cited from earlier work
[2] = biological target: T1, FLAG epitope-tagged holoreceptor of human type 1 insulin-like growth factor receptor (human, UniProt P08069 31-1367, limits assumed); assay: ratio of dissociation constants from competitive displacement of 125I-IGF-I on plate-captured FLAG-tagged hIGFR; relative to insulin lispro
T1 construct: mature; Holoreceptor captured on 96 well plates coated with anti-FLAG monoclonal antibody; The natural receptor is processed from one precursor into alpha and beta chains; also called hIGFR; IGF-1R
From the text: Cross-reactivity of the single-chain insulin analogues with IGF-1R was studied using a FLAG epitope-tagged holoreceptor to human type 1 insulin-like growth factor receptor (hIGFR) bound to 96 well plates coated with anti-FLAG monoclonal antibody. […] This is used as a marker for mitogenic potential, where less IGF-R affinity is interpreted as lower mitogenic potential.

Molecule | receptor-binding affinity relative to KP-insulin (insulin receptor (IR)) | in vivo potency [1] | IGF1-R (Rel. Aff.) [2]
2-F-PheB24-DKP-insulin: derivative of DKP-insulin containing ortho-monofluoro-phenylalanine at position B24 | ca. 35(±5) % | potency and duration of signaling are enhanced | –
single-chain insulin EA8, EA14, QA17, PE, EAGPRR (ligand, Single-chain insulin analogue (B domain, 6-residue C domain, A domain)) FVNQHLCGSHLVEALYLVCGERGFFYTPETEAGPRRGIVEQCCESICSLEQLQNYCN | – | – | 11%
single-chain insulin EA8, EA14, RA17, EP, EAGPRR (ligand) FVNQHLCGSHLVEALYLVCGERGFFYTEPTEAGPRRGIVEQCCESICSLEQLRNYCN | – | – | 5%
single-chain insulin EA8, EA14, RA17, PE, EAGPRR (ligand) FVNQHLCGSHLVEALYLVCGERGFFYTPETEAGPRRGIVEQCCESICSLEQLRNYCN | – | – | 25%
single-chain insulin HA8, EA14, FB17, PE, EEGPRR (ligand) FVNQHLCGSHLVEALYFVCGERGFFYTPETEEGPRRGIVEQCCHSICSLEQLENYCN | – | – | 16%
single-chain insulin HA8, EA14, NB17, PE, EEGPRR (ligand) FVNQHLCGSHLVEALYNVCGERGFFYTPETEEGPRRGIVEQCCHSICSLEQLENYCN | – | – | 2%
single-chain insulin HA8, EA14, QA17, PE, EAGPRR (ligand) FVNQHLCGSHLVEALYLVCGERGFFYTPETEAGPRRGIVEQCCHSICSLEQLQNYCN | – | – | 18%
